target: T1, Human CD137 ECD (human); assay: Biacore SPR, vs parent H183/L072
T1 construct: entry includes C-terminal His-tag and biotin acceptor peptide; also called human CD137 extracellular domain; 4-1BB
T1 sequence (chain, as listed by the source limits assumed): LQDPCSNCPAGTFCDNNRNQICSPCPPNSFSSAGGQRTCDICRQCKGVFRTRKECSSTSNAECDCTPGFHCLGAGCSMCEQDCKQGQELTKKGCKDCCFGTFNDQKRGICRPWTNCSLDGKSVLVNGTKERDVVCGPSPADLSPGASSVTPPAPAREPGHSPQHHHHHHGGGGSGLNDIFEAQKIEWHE

| fold change of affinity | Binder |
| --- | --- |
| 0 fold | H183/L072 VL A89P (antibody, name in Kabat numbering, V domains shown, Dual-Ig) VH: QVQLVESGGGLVQPGRSLRLSCAASGFTFSNAWMHWVRQAPGKGLEWVAQIKDKGNAYAAYYAPSVKGRFTISRDDSKNSIYLQMNSLKTEDTAVYYCHYVHYASASTVLPAFGVDAWGQGTTVTVSS VL: DIVMTQSPLSLPVTPGEPASISCQASQELVHMNRNTYLHWYQQKPGQAPRLLIYKVSNRFPGVPDRFSGSGSGTDFTLKISRVEAEDVGVYYCPQGTSVPFTFGQGTKLEIK |
| 0 fold | H183/L072 VL A89S (antibody, name in Kabat numbering, V domains shown, Dual-Ig) VH: QVQLVESGGGLVQPGRSLRLSCAASGFTFSNAWMHWVRQAPGKGLEWVAQIKDKGNAYAAYYAPSVKGRFTISRDDSKNSIYLQMNSLKTEDTAVYYCHYVHYASASTVLPAFGVDAWGQGTTVTVSS VL: DIVMTQSPLSLPVTPGEPASISCQASQELVHMNRNTYLHWYQQKPGQAPRLLIYKVSNRFPGVPDRFSGSGSGTDFTLKISRVEAEDVGVYYCSQGTSVPFTFGQGTKLEIK |
| 0 fold | H183/L072 VL A89M (antibody, name in Kabat numbering, V domains shown, Dual-Ig) VH: QVQLVESGGGLVQPGRSLRLSCAASGFTFSNAWMHWVRQAPGKGLEWVAQIKDKGNAYAAYYAPSVKGRFTISRDDSKNSIYLQMNSLKTEDTAVYYCHYVHYASASTVLPAFGVDAWGQGTTVTVSS VL: DIVMTQSPLSLPVTPGEPASISCQASQELVHMNRNTYLHWYQQKPGQAPRLLIYKVSNRFPGVPDRFSGSGSGTDFTLKISRVEAEDVGVYYCMQGTSVPFTFGQGTKLEIK |
| 0 fold | H183/L072 VL A89L (antibody, name in Kabat numbering, V domains shown, Dual-Ig) VH: QVQLVESGGGLVQPGRSLRLSCAASGFTFSNAWMHWVRQAPGKGLEWVAQIKDKGNAYAAYYAPSVKGRFTISRDDSKNSIYLQMNSLKTEDTAVYYCHYVHYASASTVLPAFGVDAWGQGTTVTVSS VL: DIVMTQSPLSLPVTPGEPASISCQASQELVHMNRNTYLHWYQQKPGQAPRLLIYKVSNRFPGVPDRFSGSGSGTDFTLKISRVEAEDVGVYYCLQGTSVPFTFGQGTKLEIK |
| 0 fold | H183/L072 VL A89N (antibody, name in Kabat numbering, V domains shown, Dual-Ig) VH: QVQLVESGGGLVQPGRSLRLSCAASGFTFSNAWMHWVRQAPGKGLEWVAQIKDKGNAYAAYYAPSVKGRFTISRDDSKNSIYLQMNSLKTEDTAVYYCHYVHYASASTVLPAFGVDAWGQGTTVTVSS VL: DIVMTQSPLSLPVTPGEPASISCQASQELVHMNRNTYLHWYQQKPGQAPRLLIYKVSNRFPGVPDRFSGSGSGTDFTLKISRVEAEDVGVYYCNQGTSVPFTFGQGTKLEIK |
| 0 fold | H183/L072 VL A89Q (antibody, name in Kabat numbering, V domains shown, Dual-Ig) VH: QVQLVESGGGLVQPGRSLRLSCAASGFTFSNAWMHWVRQAPGKGLEWVAQIKDKGNAYAAYYAPSVKGRFTISRDDSKNSIYLQMNSLKTEDTAVYYCHYVHYASASTVLPAFGVDAWGQGTTVTVSS VL: DIVMTQSPLSLPVTPGEPASISCQASQELVHMNRNTYLHWYQQKPGQAPRLLIYKVSNRFPGVPDRFSGSGSGTDFTLKISRVEAEDVGVYYCQQGTSVPFTFGQGTKLEIK |
| 0 fold | H183/L072 VL A89R (antibody, name in Kabat numbering, V domains shown, Dual-Ig) VH: QVQLVESGGGLVQPGRSLRLSCAASGFTFSNAWMHWVRQAPGKGLEWVAQIKDKGNAYAAYYAPSVKGRFTISRDDSKNSIYLQMNSLKTEDTAVYYCHYVHYASASTVLPAFGVDAWGQGTTVTVSS VL: DIVMTQSPLSLPVTPGEPASISCQASQELVHMNRNTYLHWYQQKPGQAPRLLIYKVSNRFPGVPDRFSGSGSGTDFTLKISRVEAEDVGVYYCRQGTSVPFTFGQGTKLEIK |
| 0 fold | H183/L072 VL A89W (antibody, name in Kabat numbering, V domains shown, Dual-Ig) VH: QVQLVESGGGLVQPGRSLRLSCAASGFTFSNAWMHWVRQAPGKGLEWVAQIKDKGNAYAAYYAPSVKGRFTISRDDSKNSIYLQMNSLKTEDTAVYYCHYVHYASASTVLPAFGVDAWGQGTTVTVSS VL: DIVMTQSPLSLPVTPGEPASISCQASQELVHMNRNTYLHWYQQKPGQAPRLLIYKVSNRFPGVPDRFSGSGSGTDFTLKISRVEAEDVGVYYCWQGTSVPFTFGQGTKLEIK |
| 0 fold | H183/L072 VL A89V (antibody, name in Kabat numbering, V domains shown, Dual-Ig) VH: QVQLVESGGGLVQPGRSLRLSCAASGFTFSNAWMHWVRQAPGKGLEWVAQIKDKGNAYAAYYAPSVKGRFTISRDDSKNSIYLQMNSLKTEDTAVYYCHYVHYASASTVLPAFGVDAWGQGTTVTVSS VL: DIVMTQSPLSLPVTPGEPASISCQASQELVHMNRNTYLHWYQQKPGQAPRLLIYKVSNRFPGVPDRFSGSGSGTDFTLKISRVEAEDVGVYYCVQGTSVPFTFGQGTKLEIK |
| 0 fold | H183/L072 VL A89T (antibody, name in Kabat numbering, V domains shown, Dual-Ig) VH: QVQLVESGGGLVQPGRSLRLSCAASGFTFSNAWMHWVRQAPGKGLEWVAQIKDKGNAYAAYYAPSVKGRFTISRDDSKNSIYLQMNSLKTEDTAVYYCHYVHYASASTVLPAFGVDAWGQGTTVTVSS VL: DIVMTQSPLSLPVTPGEPASISCQASQELVHMNRNTYLHWYQQKPGQAPRLLIYKVSNRFPGVPDRFSGSGSGTDFTLKISRVEAEDVGVYYCTQGTSVPFTFGQGTKLEIK |
| 0.9 fold | H183/L072 VL E27aA (antibody, name in Kabat numbering, V domains shown, Dual-Ig) VH: QVQLVESGGGLVQPGRSLRLSCAASGFTFSNAWMHWVRQAPGKGLEWVAQIKDKGNAYAAYYAPSVKGRFTISRDDSKNSIYLQMNSLKTEDTAVYYCHYVHYASASTVLPAFGVDAWGQGTTVTVSS VL: DIVMTQSPLSLPVTPGEPASISCQASQALVHMNRNTYLHWYQQKPGQAPRLLIYKVSNRFPGVPDRFSGSGSGTDFTLKISRVEAEDVGVYYCAQGTSVPFTFGQGTKLEIK |

The next lines start with the binder.

| Binder | fold change of affinity |
| --- | --- |
| H183/L072 VL A25T (antibody, name in Kabat numbering, V domains shown, Dual-Ig) VH: QVQLVESGGGLVQPGRSLRLSCAASGFTFSNAWMHWVRQAPGKGLEWVAQIKDKGNAYAAYYAPSVKGRFTISRDDSKNSIYLQMNSLKTEDTAVYYCHYVHYASASTVLPAFGVDAWGQGTTVTVSS VL: DIVMTQSPLSLPVTPGEPASISCQTSQELVHMNRNTYLHWYQQKPGQAPRLLIYKVSNRFPGVPDRFSGSGSGTDFTLKISRVEAEDVGVYYCAQGTSVPFTFGQGTKLEIK | 0.7 fold |
| H183/L072 VL A89E (antibody, name in Kabat numbering, V domains shown, Dual-Ig) VH: QVQLVESGGGLVQPGRSLRLSCAASGFTFSNAWMHWVRQAPGKGLEWVAQIKDKGNAYAAYYAPSVKGRFTISRDDSKNSIYLQMNSLKTEDTAVYYCHYVHYASASTVLPAFGVDAWGQGTTVTVSS VL: DIVMTQSPLSLPVTPGEPASISCQASQELVHMNRNTYLHWYQQKPGQAPRLLIYKVSNRFPGVPDRFSGSGSGTDFTLKISRVEAEDVGVYYCEQGTSVPFTFGQGTKLEIK | 0 fold |
| H183/L072 VL A89D (antibody, name in Kabat numbering, V domains shown, Dual-Ig) VH: QVQLVESGGGLVQPGRSLRLSCAASGFTFSNAWMHWVRQAPGKGLEWVAQIKDKGNAYAAYYAPSVKGRFTISRDDSKNSIYLQMNSLKTEDTAVYYCHYVHYASASTVLPAFGVDAWGQGTTVTVSS VL: DIVMTQSPLSLPVTPGEPASISCQASQELVHMNRNTYLHWYQQKPGQAPRLLIYKVSNRFPGVPDRFSGSGSGTDFTLKISRVEAEDVGVYYCDQGTSVPFTFGQGTKLEIK | 0 fold |
| H183/L072 VL A25V (antibody, name in Kabat numbering, V domains shown, Dual-Ig) VH: QVQLVESGGGLVQPGRSLRLSCAASGFTFSNAWMHWVRQAPGKGLEWVAQIKDKGNAYAAYYAPSVKGRFTISRDDSKNSIYLQMNSLKTEDTAVYYCHYVHYASASTVLPAFGVDAWGQGTTVTVSS VL: DIVMTQSPLSLPVTPGEPASISCQVSQELVHMNRNTYLHWYQQKPGQAPRLLIYKVSNRFPGVPDRFSGSGSGTDFTLKISRVEAEDVGVYYCAQGTSVPFTFGQGTKLEIK | 0.5 fold |
| H183/L072 VL A89G (antibody, name in Kabat numbering, V domains shown, Dual-Ig) VH: QVQLVESGGGLVQPGRSLRLSCAASGFTFSNAWMHWVRQAPGKGLEWVAQIKDKGNAYAAYYAPSVKGRFTISRDDSKNSIYLQMNSLKTEDTAVYYCHYVHYASASTVLPAFGVDAWGQGTTVTVSS VL: DIVMTQSPLSLPVTPGEPASISCQASQELVHMNRNTYLHWYQQKPGQAPRLLIYKVSNRFPGVPDRFSGSGSGTDFTLKISRVEAEDVGVYYCGQGTSVPFTFGQGTKLEIK | 0.5 fold |
| H183/L072 VL A89F (antibody, name in Kabat numbering, V domains shown, Dual-Ig) VH: QVQLVESGGGLVQPGRSLRLSCAASGFTFSNAWMHWVRQAPGKGLEWVAQIKDKGNAYAAYYAPSVKGRFTISRDDSKNSIYLQMNSLKTEDTAVYYCHYVHYASASTVLPAFGVDAWGQGTTVTVSS VL: DIVMTQSPLSLPVTPGEPASISCQASQELVHMNRNTYLHWYQQKPGQAPRLLIYKVSNRFPGVPDRFSGSGSGTDFTLKISRVEAEDVGVYYCFQGTSVPFTFGQGTKLEIK | 0 fold |
| H183/L072 VL A89K (antibody, name in Kabat numbering, V domains shown, Dual-Ig) VH: QVQLVESGGGLVQPGRSLRLSCAASGFTFSNAWMHWVRQAPGKGLEWVAQIKDKGNAYAAYYAPSVKGRFTISRDDSKNSIYLQMNSLKTEDTAVYYCHYVHYASASTVLPAFGVDAWGQGTTVTVSS VL: DIVMTQSPLSLPVTPGEPASISCQASQELVHMNRNTYLHWYQQKPGQAPRLLIYKVSNRFPGVPDRFSGSGSGTDFTLKISRVEAEDVGVYYCKQGTSVPFTFGQGTKLEIK | 0 fold |
| H183/L072 VL A89H (antibody, name in Kabat numbering, V domains shown, Dual-Ig) VH: QVQLVESGGGLVQPGRSLRLSCAASGFTFSNAWMHWVRQAPGKGLEWVAQIKDKGNAYAAYYAPSVKGRFTISRDDSKNSIYLQMNSLKTEDTAVYYCHYVHYASASTVLPAFGVDAWGQGTTVTVSS VL: DIVMTQSPLSLPVTPGEPASISCQASQELVHMNRNTYLHWYQQKPGQAPRLLIYKVSNRFPGVPDRFSGSGSGTDFTLKISRVEAEDVGVYYCHQGTSVPFTFGQGTKLEIK | 0 fold |
| H183/L072 VL A89I (antibody, name in Kabat numbering, V domains shown, Dual-Ig) VH: QVQLVESGGGLVQPGRSLRLSCAASGFTFSNAWMHWVRQAPGKGLEWVAQIKDKGNAYAAYYAPSVKGRFTISRDDSKNSIYLQMNSLKTEDTAVYYCHYVHYASASTVLPAFGVDAWGQGTTVTVSS VL: DIVMTQSPLSLPVTPGEPASISCQASQELVHMNRNTYLHWYQQKPGQAPRLLIYKVSNRFPGVPDRFSGSGSGTDFTLKISRVEAEDVGVYYCIQGTSVPFTFGQGTKLEIK | 0 fold |

— patent publication US20210388087A1 (Chugai, published 2021)
